Source: PMC7983153 (The Biochemical journal, 2018)
Each block holds one molecule with its values, some of them ahead of it.

Assays:
[1] = target: MtTSPS-R37E mutant (Medicago truncatula); assay: SEC
MtTSPS = MtTSPS (Medicago truncatula, UniProt G7K2D1); assay: X-ray crystallography, […] Å; conditions: co-crystallization, 10-molar excess of ligand, pH 6.5; polyamine-binding groove
[2] = target: thermospermine synthase from Medicago truncatula (MtTSPS) (Medicago truncatula); assay: SAXS
[3] = target: thermospermine synthase from Medicago truncatula (MtTSPS) (Medicago truncatula); assay: crystal structure

stoichiometry N [1]: 2
Molecule: MtTSPS-R37E mutant (enzyme)

Molecule: NCCCCNCCCNCCCN [TSPM, thermospermine]
X-ray crystallography, 1.65 Å (MtTSPS): TSPM in the MtTSPS-TSPM complex is bound with aminopropyl group pointing outside the pocket

stoichiometry N [2]: 4
stoichiometry N [3]: 4
Molecule: thermospermine synthase from Medicago truncatula (MtTSPS) (enzyme)
